The results in this text go back to the RNAGym collection of RNA variant scans (doi:10.1093/molbev/msab373).

B1: Azoarcus group I ribozyme (parent)
chain: GUGCCUUGCGCCGGGAAACCACGCAAGGGAUGGUGUCAAAUUCGGCGAAACCUAAGCGCCCGCCCGGGCGUAUGGCAACGCCGAGCCAAGCUUCGGCGCCUGCGCCGAUGAAGGUGUAGAGACUAGACGGCACCCACCUAAGGCAAACGCUAUGGUGAAGGCAUAGUCCAGGGAGUGGCGAAAGUCACACAAACCGG

In this data set the parent is B1. Briefly: reverse-splicing fitness (ratio to wild type); higher = more active; in vitro selection; Mg2+ level not given. In a few lines: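 An in vitro group I ribozyme library with randomized positions was T7-transcribed and gel-purified. In triplicate, 10 pmol RNA in EPPS pH 7.5 was reacted with 50 pmoles of a 30-nt RNA substrate for 1 h at 37 °C across several added MgCl2 levels (1–48 mM), then stopped with EDTA. Products were reverse transcribed from a substrate-complementary primer, PCR-amplified and sequenced (HiSeq 4000). Fitness is a variant's read proportion after selection over that before, normalised to wild type.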
Turning to C82G A111C A120U A145U C150G C169U U176G, the reverse-splicing fitness was determined as 0.00234.
Regarding C82G A111C A120U A145C U176G, the reverse-splicing fitness worked out at 0.00462.
Consider C82G A111C A120U A145C U176C, for which the reverse-splicing fitness was found to be 0.013.
C82G A111C A120U A145C U176A: the reverse-splicing fitness is 0.0111.
As for C82G A111C A120U A145C C150U C169G, the reverse-splicing fitness was determined as 0.00299.
To C82G A111C A120U A145C C150U C169A belongs 0.00304.
Turning to C82G A111C A120U A145C C150U C169U, the reverse-splicing fitness was found to be 0.003.
On to C82G A111C A120U C150U, for which the reverse-splicing fitness stood at 0.0243.
In the case of C82G A111C A120U C150A, the reverse-splicing fitness is 0.00807.
With C82G A111C A120U C150G, the reverse-splicing fitness was determined as 0.00766.
For the variant C82G A111C A145G C150G, the reverse-splicing fitness stood at 0.0266.
On to C82G A111C A145G C150A, for which the reverse-splicing fitness came to 0.0364.
In the case of C82G A111C A120U A145U C150U C169A U176C, the reverse-splicing fitness is 0.00293.
On to C82G A111C A120U A145U C150U C169A U176A, for which the reverse-splicing fitness worked out at 0.00282.
C82G A111C A120U A145U C150U C169A U176G: the reverse-splicing fitness came out at 0.00223.
To C82G A111C A120U A145U C150A C169G U176C belongs 0.00248.
C82G A111C A120U A145U C150A C169G U176G: the reverse-splicing fitness came out at 0.00223.
Regarding C82G A111C A120U A145U C150A C169G U176A, the reverse-splicing fitness stood at 0.00297.
For C82G A111C A145C C169U U176G, the reverse-splicing fitness came to 0.00741.
Take C82G A111C A145C C169U U176A: the reverse-splicing fitness is 0.018.
In the case of C82G A111C A145C C169U U176C, the reverse-splicing fitness was 0.016.
Turning to C82G A111C A120U A145C C150U C169G U176C, the reverse-splicing fitness turned out to be 0.00305.
C82G A111C A120U A145C C150U C169G U176G: the reverse-splicing fitness is 0.00262.
As to C82G A111C A120U A145C C150U C169G U176A, the reverse-splicing fitness was 0.00257.
C82G A111C A120U C150U C169A U176C: the reverse-splicing fitness was 0.00319.
Take C82G A111C A120U C150U C169A U176G: the reverse-splicing fitness came to 0.00243.
To C82G A111C A120U C150U C169A U176A belongs 0.00515.
As for C82G A111C A145C C150U C169G, the reverse-splicing fitness worked out at 0.00777.
For C82G A111C A145C C150U C169A, the reverse-splicing fitness is 0.00808.
As to C82G A111C A145C C150U C169U, the reverse-splicing fitness amounted to 0.0113.
C82G A111C A120U A145C C150G C169A U176C: the reverse-splicing fitness came to 0.00252.
As for C82G A111C A120U A145C C150G C169A U176A, the reverse-splicing fitness was 0.00295.
Regarding C82G A111C A120U A145C C150G C169A U176G, the reverse-splicing fitness amounted to 0.00274.
As to C82G A111C A120U A145U C150U C169U, the reverse-splicing fitness is 0.00397.
As for C82G A111C A120U A145U C150U C169G, the reverse-splicing fitness is 0.00403.
Take C82G A111C A120U A145U C150U C169A: the reverse-splicing fitness came out at 0.00298.
As to C82G A111C A120U C150U C169G U176A, the reverse-splicing fitness is 0.00503.
To C82G A111C A120U C150U C169G U176C belongs 0.00301; to C82G A111C A120U C150U C169G U176G, 0.00259; to C82G A111C A120U U176G, 0.00466.
In the case of C82G A111C A120U U176A, the reverse-splicing fitness was found to be 0.0113.
With C82G A111C A120U U176C, the reverse-splicing fitness is 0.0175.
Turning to C82G A111C A120U A145U C150A C169A U176C, the reverse-splicing fitness is 0.00267.
To C82G A111C A120U A145U C150A C169A U176A belongs 0.00336; to C82G A111C A120U A145U C150A C169A U176G, 0.00195; to C82G A111C A145G C150G C169A U176C, 0.0129.
On to C82G A111C A145G C150G C169A U176A, for which the reverse-splicing fitness amounted to 0.0115.
Turning to C82G A111C A145G C150G C169A U176G, the reverse-splicing fitness was 0.00829.
As for C82G A111C A145C C150U C169U U176A, the reverse-splicing fitness was found to be 0.013.
As to C82G A111C A145C C150U C169U U176G, the reverse-splicing fitness was found to be 0.00739.
C82G A111C A145C C150U C169U U176C: the reverse-splicing fitness was found to be 0.0131.
As to C82G A111C A120U A145C C150G C169U U176C, the reverse-splicing fitness worked out at 0.00324.
Take C82G A111C A120U A145C C150G C169U U176G: the reverse-splicing fitness came out at 0.00222.
With C82G A111C A120U A145C C150G C169U U176A, the reverse-splicing fitness is 0.00358.
To C82G A111C A120U A145U C150A C169U U176C belongs 0.00353; to C82G A111C A120U A145U C150A C169U U176A, 0.00302; to C82G A111C A120U A145U C150A C169U U176G, 0.00243.
For C82G A111C A120U C150A U176A, the reverse-splicing fitness is 0.00581.
Regarding C82G A111C A120U C150A U176C, the reverse-splicing fitness is 0.00693.
To C82G A111C A120U C150A U176G belongs 0.00333; to C82G A111C A145G C150A C169A U176G, 0.0086.
On to C82G A111C A145G C150A C169A U176A, for which the reverse-splicing fitness was 0.0179.
Take C82G A111C A145G C150A C169A U176C: the reverse-splicing fitness is 0.0204.
On to C82G A111C A120U A145C C150G C169U, for which the reverse-splicing fitness was 0.00395.
On to C82G A111C A120U A145C C150G C169A, for which the reverse-splicing fitness came to 0.00373.
For the variant C82G A111C A120U A145C C150G C169G, the reverse-splicing fitness stood at 0.0033.
In the case of C82G A111C A120U A145U C150A U176A, the reverse-splicing fitness came out at 0.00533.
On to C82G A111C A120U A145U C150A U176C, for which the reverse-splicing fitness was determined as 0.00583.
To C82G A111C A120U A145U C150A U176G belongs 0.00269; to C82G A111C A120U A145U, 0.0481; to C82G A111C A120U A145G, 0.0506.
To C82G A111C A145C C169G belongs 0.00898; to C82G A111C A145C C169A, 0.00847; to C82G A111C A145C C169U, 0.0125.
Take C82G A111C A120U A145U U176A: the reverse-splicing fitness was 0.0115.
For C82G A111C A120U A145U U176G, the reverse-splicing fitness worked out at 0.00533.
To C82G A111C A120U A145U U176C belongs 0.0197; to C82G A111C A120U C150G C169U U176A, 0.00494; to C82G A111C A120U C150G C169U U176G, 0.00294.
For the variant C82G A111C A120U C150G C169U U176C, the reverse-splicing fitness came out at 0.00676.
To C82G A111C A120U A145U C150U C169G U176A belongs 0.00347; to C82G A111C A120U A145U C150U C169G U176G, 0.00273; to C82G A111C A120U A145U C150U C169G U176C, 0.00346.
Regarding C82G A111C A145G C150G C169G U176A, the reverse-splicing fitness stood at 0.00869.
